Results reported in patent publication US20150203575A1 (Genentech, published 2015).

How the values were obtained:
[1] = biological target: T1, PSS8 expressed on cells (human, UniProt Q16651 30-343); assay: flow cytometry, transfected 293T cells, 50 µg/ml
T1 construct: Clone of the Origene human cDNA library; also called Protease serine 8; prostasin

[2] = biological target: T2, IL-2Ra expressed on cells (human, UniProt P01589 22-272); assay: flow cytometry, transfected 293T cells, 50 µg/ml
T2 construct: Clone of the Origene human cDNA library; also called Interleukin 2 receptor alpha
T2 sequence: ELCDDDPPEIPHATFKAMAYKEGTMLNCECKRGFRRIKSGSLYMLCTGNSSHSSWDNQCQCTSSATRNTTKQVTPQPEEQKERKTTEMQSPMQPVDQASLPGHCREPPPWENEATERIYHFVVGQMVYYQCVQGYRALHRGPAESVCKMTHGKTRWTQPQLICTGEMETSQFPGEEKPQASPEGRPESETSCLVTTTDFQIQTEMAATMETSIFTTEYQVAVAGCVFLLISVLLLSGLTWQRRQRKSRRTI

[3] = biological target: T3, BR3 expressed on cells (human, UniProt Q96RJ3 1-184); assay: flow cytometry, transfected 293T cells, 50 µg/ml
T3 construct: Clone of the Origene human cDNA library
T3 sequence: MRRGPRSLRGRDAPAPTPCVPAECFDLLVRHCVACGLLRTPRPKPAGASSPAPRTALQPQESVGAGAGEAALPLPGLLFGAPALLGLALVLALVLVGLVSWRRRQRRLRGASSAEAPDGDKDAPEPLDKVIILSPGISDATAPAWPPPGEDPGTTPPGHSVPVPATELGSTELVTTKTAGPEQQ

[4] = biological target: T4, human NPDC1 expressed on cells (human, UniProt Q9NQX5 35-325); assay: equilibrium competition radioligand assay: 125I-hPILRα-Fc against unlabeled hPILRα-Fc on 293T cells transiently expressing hNPDC1; average of two replicate assays
T4 construct: also called hNPDC1; hNPCD1
T4 sequence: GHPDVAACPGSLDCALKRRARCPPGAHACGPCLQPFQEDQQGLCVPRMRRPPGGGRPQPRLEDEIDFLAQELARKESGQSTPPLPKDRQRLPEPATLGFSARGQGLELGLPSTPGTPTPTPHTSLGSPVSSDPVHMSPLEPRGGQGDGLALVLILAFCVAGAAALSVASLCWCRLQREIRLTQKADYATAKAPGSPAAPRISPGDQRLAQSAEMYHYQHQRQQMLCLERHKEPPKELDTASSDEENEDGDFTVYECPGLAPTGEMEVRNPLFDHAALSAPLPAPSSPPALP
Excerpt: Binding to mock transfectants (grey area) represents background binding. Transfected ligand expressing cells were gated and their binding to PILRα-Fc was shown. […] Binding to mock transfectants (grey area) represents background binding. PILRα positive cells were gated and ligand fusion staining was shown.

[5] = biological target: T1, PSS8 expressed on cells; assay: flow cytometry, transfected 293T cells, 2 µg/ml
[6] = biological target: T2, IL-2Ra expressed on cells; assay: flow cytometry, transfected 293T cells, 2 µg/ml
[7] = biological target: T3, BR3 expressed on cells; assay: flow cytometry, transfected 293T cells, 2 µg/ml
[8] = biological target: T5, MAG expressed on cells (human, UniProt P20916 20-626); assay: flow cytometry, transfected 293T cells, 2 µg/ml
T5 construct: Clone of the Origene human cDNA library; also called Myelin associated glycoprotein; SIGLEC4A
T5 sequence: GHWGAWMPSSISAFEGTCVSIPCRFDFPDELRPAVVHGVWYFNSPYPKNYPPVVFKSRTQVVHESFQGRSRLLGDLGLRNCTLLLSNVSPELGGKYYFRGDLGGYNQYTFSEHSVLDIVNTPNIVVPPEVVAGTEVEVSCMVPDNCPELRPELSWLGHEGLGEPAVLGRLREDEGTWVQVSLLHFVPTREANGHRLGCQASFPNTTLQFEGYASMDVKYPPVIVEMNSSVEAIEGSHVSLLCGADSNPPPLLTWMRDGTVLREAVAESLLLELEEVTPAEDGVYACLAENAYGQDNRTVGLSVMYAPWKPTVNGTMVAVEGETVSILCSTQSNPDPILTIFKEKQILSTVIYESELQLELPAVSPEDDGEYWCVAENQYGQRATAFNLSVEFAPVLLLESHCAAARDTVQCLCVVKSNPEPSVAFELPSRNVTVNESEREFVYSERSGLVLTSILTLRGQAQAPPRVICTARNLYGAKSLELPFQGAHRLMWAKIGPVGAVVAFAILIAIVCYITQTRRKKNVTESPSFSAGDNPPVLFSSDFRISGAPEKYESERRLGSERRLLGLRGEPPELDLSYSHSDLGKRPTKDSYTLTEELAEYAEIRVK

[9] = biological target: T6, LRRTM4 expressed on cells (human, UniProt Q86VH4 31-590); assay: flow cytometry, transfected 293T cells, 2 µg/ml
T6 construct: Clone of the Origene human cDNA library; also called Leucine rich repeat transmembrane neuronal 4
T6 sequence (Q86VH4 31-590 limits assumed): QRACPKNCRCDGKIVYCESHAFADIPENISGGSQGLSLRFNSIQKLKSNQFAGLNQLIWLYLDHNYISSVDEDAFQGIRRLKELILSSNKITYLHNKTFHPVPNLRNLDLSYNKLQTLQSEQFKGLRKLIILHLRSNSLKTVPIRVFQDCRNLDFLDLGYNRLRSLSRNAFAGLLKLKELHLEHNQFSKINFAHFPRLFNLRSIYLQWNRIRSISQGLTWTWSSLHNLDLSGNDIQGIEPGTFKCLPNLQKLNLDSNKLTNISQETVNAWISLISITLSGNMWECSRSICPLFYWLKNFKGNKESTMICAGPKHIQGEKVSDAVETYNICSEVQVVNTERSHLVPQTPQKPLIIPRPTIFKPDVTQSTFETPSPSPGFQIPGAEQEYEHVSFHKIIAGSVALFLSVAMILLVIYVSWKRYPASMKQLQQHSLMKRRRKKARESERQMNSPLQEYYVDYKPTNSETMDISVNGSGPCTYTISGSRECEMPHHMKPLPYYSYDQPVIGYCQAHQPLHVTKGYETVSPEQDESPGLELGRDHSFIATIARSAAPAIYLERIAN

[10] = biological target: T4, human NPDC1 expressed on cells; assay: flow cytometry, transfected 293T cells, 50 µg/ml; 293T-Neo: 1.5
[11] = biological target: T7, human COLEC12 expressed on cells (human, UniProt Q5KU26 1-742); assay: as above
T7 construct: also called hCOLEC12; C-terminal his tagged hCOLEC12
T7 sequence (Q5KU26 whole entry S522P/G606S): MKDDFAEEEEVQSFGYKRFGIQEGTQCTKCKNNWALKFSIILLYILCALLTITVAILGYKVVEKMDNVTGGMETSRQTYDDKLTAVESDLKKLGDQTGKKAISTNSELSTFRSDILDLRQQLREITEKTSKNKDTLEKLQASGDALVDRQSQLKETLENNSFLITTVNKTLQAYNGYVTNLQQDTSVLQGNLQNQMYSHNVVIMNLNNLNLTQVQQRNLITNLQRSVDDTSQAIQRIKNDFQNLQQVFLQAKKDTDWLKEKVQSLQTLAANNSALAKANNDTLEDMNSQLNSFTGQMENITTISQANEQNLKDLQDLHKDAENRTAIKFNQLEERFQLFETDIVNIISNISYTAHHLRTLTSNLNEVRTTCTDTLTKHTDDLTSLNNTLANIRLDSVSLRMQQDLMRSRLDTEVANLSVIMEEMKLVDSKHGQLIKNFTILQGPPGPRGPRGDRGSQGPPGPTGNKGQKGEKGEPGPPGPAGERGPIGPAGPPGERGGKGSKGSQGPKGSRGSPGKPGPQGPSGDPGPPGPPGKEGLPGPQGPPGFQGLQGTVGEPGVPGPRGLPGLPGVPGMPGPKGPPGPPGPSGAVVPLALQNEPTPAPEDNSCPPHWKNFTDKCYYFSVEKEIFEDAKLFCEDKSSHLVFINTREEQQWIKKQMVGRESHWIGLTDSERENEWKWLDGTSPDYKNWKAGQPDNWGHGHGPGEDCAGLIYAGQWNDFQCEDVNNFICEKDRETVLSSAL

[12] = biological target: T8, mouse CD99 expressed on 293T cells (mouse, UniProt Q8VCN6 29-175, sialylated O-glycans at Thr-45 and Thr-50 (cited as relevant for PILRα recognition)); assay: as above
T8 construct: whole, on cells; also called mCD99; mCD99 transfectants
T8 sequence (looked up): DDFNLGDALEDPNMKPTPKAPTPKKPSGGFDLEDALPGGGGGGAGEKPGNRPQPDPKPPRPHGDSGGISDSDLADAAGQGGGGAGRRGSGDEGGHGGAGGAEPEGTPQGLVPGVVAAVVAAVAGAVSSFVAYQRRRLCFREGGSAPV

[13] = biological target: T4, human NPDC1 expressed on cells; assay: flow cytometry, transfected 293T cells, 2 µg/ml; 293T-Neo: 0.013
[14] = biological target: T7, human COLEC12 expressed on cells; assay: as above
[15] = biological target: T8, mouse CD99 expressed on 293T cells; assay: as above
[16] = biological target: T5, MAG expressed on cells; assay: flow cytometry, transfected 293T cells, 50 µg/ml
[17] = biological target: T6, LRRTM4 expressed on cells; assay: flow cytometry, transfected 293T cells, 50 µg/ml
[18] = biological target: T9, hCOLEC12-his (human, UniProt Q5KU26 59-742, sialylated O-glycans and N-glycans); assay: SPR equilibrium binding analysis, hCOLEC12 immobilised
T9 construct: Whole entry named; also called human COLEC12-his; hCOLEC12 (SPR); not shown: his tag
T9 sequence (Q5KU26 59-742 S522P/G606S limits assumed): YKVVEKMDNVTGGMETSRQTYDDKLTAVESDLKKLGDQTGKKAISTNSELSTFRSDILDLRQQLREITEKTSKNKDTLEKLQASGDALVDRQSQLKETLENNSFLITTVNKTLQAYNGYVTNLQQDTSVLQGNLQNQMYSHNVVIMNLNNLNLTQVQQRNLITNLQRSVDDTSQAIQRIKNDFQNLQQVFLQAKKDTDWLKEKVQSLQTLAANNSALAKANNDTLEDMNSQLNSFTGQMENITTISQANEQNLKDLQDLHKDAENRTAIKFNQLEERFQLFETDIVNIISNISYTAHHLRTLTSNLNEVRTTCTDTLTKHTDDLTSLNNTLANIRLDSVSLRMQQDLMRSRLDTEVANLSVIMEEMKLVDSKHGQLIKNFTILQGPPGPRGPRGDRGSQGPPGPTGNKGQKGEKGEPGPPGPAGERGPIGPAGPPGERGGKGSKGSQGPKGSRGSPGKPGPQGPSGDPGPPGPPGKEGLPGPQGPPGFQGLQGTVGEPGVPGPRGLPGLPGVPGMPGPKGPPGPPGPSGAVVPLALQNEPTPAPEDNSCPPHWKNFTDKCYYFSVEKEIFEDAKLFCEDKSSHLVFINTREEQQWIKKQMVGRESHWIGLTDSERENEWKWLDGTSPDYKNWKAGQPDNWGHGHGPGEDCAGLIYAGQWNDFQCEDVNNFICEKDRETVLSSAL

T1 sequence (Q16651 30-343 limits assumed): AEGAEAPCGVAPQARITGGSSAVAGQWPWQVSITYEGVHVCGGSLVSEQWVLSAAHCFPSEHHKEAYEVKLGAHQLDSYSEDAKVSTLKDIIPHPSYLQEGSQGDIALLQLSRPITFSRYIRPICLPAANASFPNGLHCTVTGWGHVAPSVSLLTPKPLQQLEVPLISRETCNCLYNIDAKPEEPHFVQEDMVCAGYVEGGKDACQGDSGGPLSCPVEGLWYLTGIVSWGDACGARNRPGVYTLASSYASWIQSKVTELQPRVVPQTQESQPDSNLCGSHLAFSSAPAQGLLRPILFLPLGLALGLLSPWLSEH

B1: hPILRα-Fc (Fc fusion)
chain: QPSGSTGSGPSYLYGVTQPKHLSASMGGSVEIPFSFYYPWELATAPDVRISWRRGHFHRQSFYSTRPPSIHKDYVNRLFLNWTEGQKSGFLRISNLQKQDQSVYFCRVELDTRSSGRQQWQSIEGTKLSITQAVTTTTQRPSSMTTTWRLSSTTTTTGLRVTQGKRRSDSWHISLETA
notes: also called human PILRα-Fc; WT hPILRα-Fc; not shown: Fc of mouse IgG2a (PILRα-mIgG2a, called PILRα-Fc)
% cells in lower right quadrant [1]: 81%
% cells in lower right quadrant [2]: 64.4%
% cells in lower right quadrant [3]: 67.3%
Kd [4]: 49 nM
% cells in lower right quadrant [5]: 18.7%
% cells in lower right quadrant [6]: 6.39%
% cells in lower right quadrant [7]: 31.5%
% cells in lower right quadrant [8]: 2.31%
% cells in lower right quadrant [9]: 11.7%
% cells in lower right quadrant [10]: 68.8%
% cells in lower right quadrant [11]: 42%
% cells in lower right quadrant [12]: 70.8%
% cells in lower right quadrant [13]: 27.8%
% cells in lower right quadrant [14]: 0.014%
% cells in lower right quadrant [15]: 23.4%
% cells in lower right quadrant [16]: 36.8%
% cells in lower right quadrant [17]: 46%
Kd [18]: 1100 nM
